Measured values from article doi:10.1101/2021.10.05.463238 (bioRxiv, 2021).
Values belong to the binder of their own block, whether it stands above or below them.

Columns and labels:
native gel or EMSA = target: the molecule itself; experiment: native gel or EMSA
[1] = target: taxol-stabilized microtubules of unlabeled porcine brain tubulin (porcine) (UniProt P02550); experiment: co-sedimentation

B1: SPR2 (38-570)-GFP (domain or fragment, Arabidopsis thaliana, UniProt Q9T041 38-570, looked up)
chain: AMVELKQKILTSISKLADRDTYQIAVEDLEKTIQSLTPETLPMFLNCLYDSCSDPKPAVKKECLHLLSYVCSLHCDSTAAHLTKIIAQIVKRLKDSDSGVRDACRDTIGALSGIYLKGKEEGTNTGSASLAVGLFVKPLFEAMGEQNKVVQSGASMCMARMVESAASPPVTSFQKLCPRICKLLSNSSFLAKASLLPVVSSLSQVGAIAPQSLESLLESIHDCLGSTDWVTRKAAAETLTALASHSSGLIKEKTDSTITVLETCRFDKIKPVRESVTEALQLWKKISGKYVDGASDDSKLSASEQLGSEKNGEKRSNLADLMKKEASDGSTLSPDSASKGKGCFPEKAVGLLKKKAPVLSDKDFNPEFFQRLERRQSVEVVVPRRCKNNDEEESGLDDLNAMGSSNRLKNTQADDKQVKGRFDGNGSQARTSGDDKAGVVNGKETPGHHAPVSNTDNQSEGSFTSNRGNWSAIQRQLLQLERQQTNLMNMLQEFIGGSHDSMVTLEGRVRGLERIVEDMARDLSISSGRRANL
binding result (native gel or EMSA): binds

B2: full-length SPR2-GFP protein (natural protein, Arabidopsis thaliana, UniProt Q9T041 1-864, looked up)
chain: MSTPTTSGSAAKPTRPARSSSLATRSCSNSGSLTSFQAMVELKQKILTSISKLADRDTYQIAVEDLEKTIQSLTPETLPMFLNCLYDSCSDPKPAVKKECLHLLSYVCSLHCDSTAAHLTKIIAQIVKRLKDSDSGVRDACRDTIGALSGIYLKGKEEGTNTGSASLAVGLFVKPLFEAMGEQNKVVQSGASMCMARMVESAASPPVTSFQKLCPRICKLLSNSSFLAKASLLPVVSSLSQVGAIAPQSLESLLESIHDCLGSTDWVTRKAAAETLTALASHSSGLIKEKTDSTITVLETCRFDKIKPVRESVTEALQLWKKISGKYVDGASDDSKLSASEQLGSEKNGEKRSNLADLMKKEASDGSTLSPDSASKGKGCFPEKAVGLLKKKAPVLSDKDFNPEFFQRLERRQSVEVVVPRRCKNNDEEESGLDDLNAMGSSNRLKNTQADDKQVKGRFDGNGSQARTSGDDKAGVVNGKETPGHHAPVSNTDNQSEGSFTSNRGNWSAIQRQLLQLERQQTNLMNMLQEFIGGSHDSMVTLEGRVRGLERIVEDMARDLSISSGRRANLTAGFGKYNSFANYPTGKYNGRAPGERGSQTDGAMRGRMWNSDMADDWFIPPHAASRNGQAGPRRSPRSEQYENEHMGNGRRGWDNKASGTIRFGEGPSARSVWQASKDEATLEAIRVAGEDGAVPRPTRVAVAPEAEAMGDDDNEGQERDPIWVSWSNAMHSLRVGDIDAAYAEVLCAGDQHLVIKLMDKTGPSLDQMSNEIANEALNFISQFLLDHSLYDICLSWSQQLLELVLQDGADTFGVPMELKTEILYNLQDACSTMDPPEDWEGPAPEQLVVQLASVWEIDLQQFDK
binding result (native gel or EMSA): binds

Kd [1]: 1.3 µM
B3: SPR2(1-570)-GFP (domain or fragment, Arabidopsis thaliana, UniProt Q9T041 1-570, looked up)
chain: MSTPTTSGSAAKPTRPARSSSLATRSCSNSGSLTSFQAMVELKQKILTSISKLADRDTYQIAVEDLEKTIQSLTPETLPMFLNCLYDSCSDPKPAVKKECLHLLSYVCSLHCDSTAAHLTKIIAQIVKRLKDSDSGVRDACRDTIGALSGIYLKGKEEGTNTGSASLAVGLFVKPLFEAMGEQNKVVQSGASMCMARMVESAASPPVTSFQKLCPRICKLLSNSSFLAKASLLPVVSSLSQVGAIAPQSLESLLESIHDCLGSTDWVTRKAAAETLTALASHSSGLIKEKTDSTITVLETCRFDKIKPVRESVTEALQLWKKISGKYVDGASDDSKLSASEQLGSEKNGEKRSNLADLMKKEASDGSTLSPDSASKGKGCFPEKAVGLLKKKAPVLSDKDFNPEFFQRLERRQSVEVVVPRRCKNNDEEESGLDDLNAMGSSNRLKNTQADDKQVKGRFDGNGSQARTSGDDKAGVVNGKETPGHHAPVSNTDNQSEGSFTSNRGNWSAIQRQLLQLERQQTNLMNMLQEFIGGSHDSMVTLEGRVRGLERIVEDMARDLSISSGRRANL
binding result (native gel or EMSA): binds

Kd [1]: 17.4 µM
B4: SPR2(1-500)-GFP (domain or fragment)
chain: MSTPTTSGSAAKPTRPARSSSLATRSCSNSGSLTSFQAMVELKQKILTSISKLADRDTYQIAVEDLEKTIQSLTPETLPMFLNCLYDSCSDPKPAVKKECLHLLSYVCSLHCDSTAAHLTKIIAQIVKRLKDSDSGVRDACRDTIGALSGIYLKGKEEGTNTGSASLAVGLFVKPLFEAMGEQNKVVQSGASMCMARMVESAASPPVTSFQKLCPRICKLLSNSSFLAKASLLPVVSSLSQVGAIAPQSLESLLESIHDCLGSTDWVTRKAAAETLTALASHSSGLIKEKTDSTITVLETCRFDKIKPVRESVTEALQLWKKISGKYVDGASDDSKLSASEQLGSEKNGEKRSNLADLMKKEASDGSTLSPDSASKGKGCFPEKAVGLLKKKAPVLSDKDFNPEFFQRLERRQSVEVVVPRRCKNNDEEESGLDDLNAMGSSNRLKNTQADDKQVKGRFDGNGSQARTSGDDKAGVVNGKETPGHHAPVSNTDNQSEGSF
